# Test: soluble on expression in E. coli; label from the status in PepcDB or PDB records
row,Sequence,soluble on expression in E. coli
1,MSLTTMKEIAEQTGVSISTVSLVLNGRDEGRVNPALAKLVRNKATELGYKINPLARSLRTNKTRILGFISEEVATTPYAGGIILGAQDAASAYGYMLFTVSTDGKASEENEIATLKRYGVDGFFYSKMSNRIAHVPESLSDYPVVMVDATDYENKVPSVEPDEFMIGYDATIRLLQADCKRIAYVGCAENMIAQDGRLAGYCTALQEAGRAFNPSLVCNVMNDGPALRAVNKLFDDEHPDGFFCFNDARAWYVYECAARRGLTVGKDISVVGVDNHRVFAETLEPQLTTVELPHYEMGYWSACKLISMIEGKDVDTSSCPSARASLPPLDAPIPAKIHCALLEKDSVISEGHHHHHH,soluble
2,WPALDDETLLARLELWLEPYLAGVTSVKGLQSVSVLQALKHYLGWELSQQLDEWLPTHHLLPTGNHKKIRYQLGMEPTLSVRMQEVFGEQSSPRVAKGTRAVVMELLSPAQRPLQVTRDLASFWAGAYKEVQKEMKGRYPKHVWPDDP,not soluble
3,MIKLVRIDYRLLHGQVVFAWTRALDIDHIIVANANAAGDAFVSMSLSLAKPAGVSLDIITVEQAAEKLASGKLDHKKVMVVLGNTAETLAFVEKVPGISVINYGGIAQKEGAQQFGKAIYLTEQEIADSQALKAKGIRLEMRQVPAHSAELLNDKL,not soluble
4,MAHHHHHHMRDPQKNCDDVVALRETLKERAGEMAKKMKENERELFLNPMPLGISCDGLPLDTDPEFHALEVARLRERQEESCDEAKIHKLNDALNERAEDLARAKLAADRQYLNPEHLRVAVDELPLNEDRNFILKEALRQEKLQNSRESAAAIAALENELNNMAKAMAAEMLAKQRPSYLAPEHHGRRIEDLPLNDSDDFLKKERRRRDLLKQPSWDIDVVAEIDKELSEMADAMARAMNAAERPQYMKASYYDKTLSELSLDTDSIIARLEAQRARLKRNPVRNAEAIHATEAAIISRAEALAKASINVGRGGVFSASQAECRSISLTSMEANSFNLLRRRGWSS,soluble
5,SDVLASYSIFQELQLVHDTGYFSALPSLEETWQQTCLELERYLQTEPRRISETFGEDLDCFLHASPPPCIEESFRRLDPLLLPVEAAICEKSSAVDILLSRDKLLSETCLSLQPASSSLDSYTAVNQAQLNAVTSLTPPSSPELSRHLVKTSQTLSAVDGTVTLKLVAKKAALSSVKVRSLISAHGRDVSGVLHEAMSSRGTTGNTQVQSPSNATTATGVFPGLTILPST,soluble
6,MIVFSDLDRSIIYSNKFLNADSKYANIEIYREKEISYISLDTINLIKQIQYYGMFIPTTTRTVEQFKRIEFNKYGIYFPWSITSNGGVILKDNEILKSWSEKIDKLKSNYEPIESMIHKFKDYLNVDGITNFKVAEDTFFYIVVDLSRFNLDSIKEYTNILESKNWKFYVSGRKIYFIPKEISKENAIKYLTKELGIEYFYAVGDSIMDYGMLNISNKSYVLKHGDINKNEIENSFISSSFNGMSGTEEILSNILDENCLLNI,not soluble
7,MSLPRKIAYEIPKNWARSNHWLMKTIVGTTFEIEGLENIPETGCIFAPKHQSFWDTYALLPNLPDPVYILKRELLWIPLFGWYAMKQRMIPVNRAARGKVMLKVMERAKEEMAAGRELIIYPEGTRRPPGAEPEYRYGIARLYRDLQVPVIPVAMHPGLFWPRRSTMRYPGHFKVRILPAIEPGLDPDVFFKRLIEVTEKASDELLLETARNNPHLPLPPTAVKRIAELQGKETTADEGHHHHHH,not soluble
8,MSLNKKMIFFDIDGTIVDEKTHVIPEGTIAAIKKARSNGHLVFINTGRTFFNVPDSIRQIGFDGYVCGCGTYIHINGQTLLEKSISHKRCVEIVEKLRECKLDALLEGQKDFFFDQREPVSEKTLELKSKFGKRGYDVSKSWDDSDIVFDKFVIWTRKESNLEAFKSHISNDFDYIDREDEEGEFGEIVLKGYSKATGIKFLQDYFNIPIEDCYALGDSLNDLPMLQYVPNSIAMGNSSKGLFDLVAFVTKDIMEDGIEYALKHYNIIEGHHHHHH,soluble
9,SNAMTGTLLSFGHGYTARVLSRALAPQGWRIIGTSRNPDQMEAIRASGAEPLLWPGEEPSLDGVTHLLISTAPDSGGDPVLAALGDQIAARAAQFRWVGYLSTTAVYGDHDGAWVDETTPLTPTAARGRWRVMAEQQWQAVPNLPLHVFRLAGIYGPGRGPFSKLGKGGIRRIIKPGQVFSRIHVEDIAQVLAASMARPDPGAVYNVCDDEPVPPQDVIAYAAELQGLPLPPAVDFDKADLTPMARSFYSENKRVRNDRIKEELGVRLKYPNYRVGLEALQADAET,soluble
10,METPLVSIVSICWNRKDEICESLNNIRKIDYESLEIIVVDNGSTDGTVEKIEEDFKEVKLIKMPKNAGIEAYNVGFKSAAGEYIVILDDDSFPEKNSIKRMVKKFQKDDKLGMVAFDVRNYYNYDEVKKIDTEETSNDTAAESDEYIMAFNGAGAGVRTEVLKKAGFYPEEFFLYWNEQDTAFRILDMGYKIKFFADVIAYHKYSPKNRASWRAPFYYTRNAFFLVWKNYSTKAALKKTIELIYDCFYYSMEQKTNIYLKAMWNAFMNFNKIKGKRKVVDKYIEENLRIPLNVSFTFYKLEHHHHHH,not soluble
11,MGSDKIHHHHHHMGMILNGYLEVINHLQQLPLALILIFNLKIMKQIIYVFLLTVLSSCDSYLSKVPSPSTSAPINNVEQLVAIYDNATAFINETNPFACYSNDDADLTAELYKADPSAFAISSTVFYNILHTAGIASQASDGLWNGEYSNIFKANTIINNVDKVTGDESEKIKLKCNAHFLRAYSYFVLAQYYCLPYCEANKNALGLPKRLNTDFEESIARVSLDEIYQLILDDLEIAAVTPDKSVNPNFPWRICQATVNALLSRVYLTMGNYKEAQATAEKALEGAPELLDFNELGYAPVESYPEMEGLPAQDVYNCETHKWTTIKYLYWKEFLFPRFTYARSQWIIPSDDLVSLYDQQNDRRFKLFFVEHGNRRMGVPYEAYRYNQFYDGRYIISGLTTAEMLLNKAEAQIRQGMWQEGLKTLDVLREKRYEAGTYISLSAGNQSEALSIVLAERRREMPFSMRIPDIKRYGVNEILEDDVTVVKNFFEISMSEVFIDKPKTYTIPSNSLLWAMPINDVEIGSSNGAIQQNRYE,not soluble
12,MGSDKIHHHHHHMEKRQSIKDIEANGDVRGLFLLGAATLNQARNGPFWRLELRDATGTMEAKIWSPQSQAYPDLAPGQIVDLEGRSGTYRDRVEVTVERLRTLGEAEQASLDISQFLPASERPAAEMLEELERLCREVFTHAPWRKFVLGVLRDDDVRPRLLVAPAAKAVHHAFVGGLVEHILSVTRLCLHLAEHYPELDRQALVAGAIFHDIGKVWELTGGLANDYSDEGRLLGHIHIGLERIEPHLRKSGLEPELVMHFKHLILSHHGELEYGSPKRPKTAEAMVLHYADNIDAKMAQMRGLFANMGEGETGWSPYQNTLQRFLYRPARTPEPVATTRRRRGTPEVEQCSLLSKA,not soluble
13,VRRGQLIDAAREITAQHGVAALTIRGVAEAAGVSLGVVHYHFEDKEELLTEMGQSLILEVSEAMRMAFSQLVGPLKKRGVPGLRELLCAGIRGLWPIIEATPDQQLLTYEITAQALRQRGAGNDSAGLVAARQYRTMDTEAVAFLNLCAHRAGVTWGTPVDQVARFALAVLDGAVLRWLVDRDSDAARTAFDDLVQIIAAKALEGEGSW,not soluble
14,MGSDKIHHHHHHMTNLLEASIEQAGYTSRKKVLTDVFLEVRKGELVGLIGANGAGKSTAIKAILGLSEDFKGHIAWNDCSFAYIPEHPSFYEELTLWEHLDLISTLHGIEESEFAHRAQSLLQTFSLDHVKHELPVTFSKGMQQKLMLIQAFLSKPDMYVIDEPFIGLDPISTKRFVDMLKAEKERGAGILMCTHVLDTAEKICDRFYMIEKGSLFLQGTLKDVQDKTGLEGQSLLDCFYKAVQGDRL,not soluble
15,MPRTDLPFDELIIREYLLDNPDFFNRYPELLLAMRLPHLERGAISLVERRQELLRQRVNQLEEEITSLLTMAARNEKIFLFNTELSFKLLNCVNLESLKEVLADNLKAQFNFTHVRLISVLEADVEMKAIWAERLRKEYYFGRLTQQEAKRLFGSEVGSVALVKLADDIPVIFAVASHDATHFHPDMDNMLLEQIRRLLAHMLAKLAAALEHHHHHH,not soluble
16,GPGSMERAATQSQSIYSNANTNSSNVNTYGNTVSSYLSNNSPNAVMYGGGNSGNGGAPSSTSVATVYASPTQASPSQAIRQQAQGAAQQNMSQSQTSTSFNAYGGGAASGSGSGFFYSTPSAQAPGAQTMYSANPSAAAMFPMRGGSTSMTPAQPTPTQMLTPQANAAAAAAAVWTNAAANINAGSKLFVGQVPAVCTEDQLRPLFAQFGTLLEIKIMREPNGRSKGSAWVRYELEESAQRAITALNEKHVVPPQTNPLRVQFAAPSTNRIPQPLSALGSIMPPSAVMQPQPQPNYATAATYATPQGYAGTTTAYMQGQYATSPNLMAVRASPQQQAAVQSASGKIEYLRSNHPGSLIYSTASPTAVDAMQQQQQQQSPQQQQVVYTTGGQMRAGVMYTPDAFAMTNQMAAAPQQPHQWCS,soluble
17,MSLAKKILVTGAGGYIGRHVVSALLDAGQDVIASDLRLDGVDERATKVQANIFEPNDNLFEELGAPDVCLHMAWRDGFKHNSDNHMGDLSNHYRFLKHMLDSGLKQIAVMGTMHEVGYWEGAIDENTPCHPASMYGIAKNALREATLMLAKEYDATAQWIRAYYIVGDDAHGNSIFSKLLQAANDGKATFPFTTGKNKYDFIDVDELARQISAVVSQDAVDGVINCCTGEPMTLAERVERYIKENDLNIKLDYGAFPDRPYDSPGVWGDASKINKIMKEGHHHHHH,soluble
18,MGSSHHHHHHSSGRENLYFQGHMTLTSIGPANRMARSAETHPLTWRLREDAQPVWLEEYQSKDGYAAARKALTQMAQDDIVQTVKDSGLKGRGGAGFPTGVKWGLMPKDESLNIRYLLCNADEMEPNTWKDRMLMEQLPHLLVEGMLISARALKAYRGYIFLRGEYVDAARNLNRAIDEAKAAGLLGKNILGSGFDFELFVHTGAGRYICGEETALINSLEGRRANPRSKPPFPAAVGVWGKPTCVNNVETLCNVPAIVGNGVDWYKTLARPGSEDMGTKLMGFSGKVKNPGLWELPFGVSARELFEDYAGGMRDGFQLKAWQPGGAGTGFLLPEHLDAQMFAGGIAKVGTRMGTGLAMAVDDSINMVSLLRNMEEFFARESCGWCTPCRDGLPWSVKLLRALERGEGQPGDLETLEQLVNFLGPGKTFCAHAPGAVEPLGSALKYFRAEFEAGISRQPSAAPRPATVGA,soluble
19,MGSDKIHHHHHHMRIQQLHYIIKIVETGSMNEAAKQLFITQPSLSNAVRDLEREMGIEIFIRNPKGITLTKDGVEFLSYARQVVEQTALLEERYKSQGHTRELFSVSAQHYAFVVNAFVSLLKETDMTRYELFLRETRTYEIIDDVKNFRSEIGVLFLNSYNHDVLTKMFDDNHLTYTSLFKAHPHIFVSKDNPLAKHQSVSLSDLEDFPYLSYDQGIHNSFYFSEEIMSQISHKKSIVVSDRATLFNLMIGLDGYTIATGILNSNLNGDNIVSIPLEVDDEIDIIYLKHEKANLSKMGEKFIDYLLEEVKFDK,not soluble
20,MGSDKIHHHHHHMLHFKHSSVINATPEVVWKFHERPDILQLLNPPWQPVQVVRREGGLNVGAITEFRLFLGPLPLTWLARHTECDKYRLFTDEQISGPFESWVHRHEFEPEAGKTRLTDAISFSMPGGETVEFVSGWLVQVQLEAMFRYRHYVTKRECESQ,not soluble
21,MVSFTKDQIADIIRKVGDGTSPEALESAVRNVLAKLQSEGLSAPASQGGKLDASSYPLGIKRKDLVKSATGLGLDDITIEKVVSGEIQFDDIKTRPETLAYQNEIAKSVNRPNLANNLARAGEMTRIPDARLLEMYNFLRPYRAAKQEMISMAEELEQKYQAPACAKLVREAADVYEKNNRLKGDR,not soluble

# Source: the DeepSol protein solubility set
